In US20210221894A1 (DRAGONFLY THERAPEUTICS, published 2021):
Residue numbers refer to the chain shown, from its start. One block for each binder: values may come before it.

Experiments:
[1] = target: T1, recombinant human DLL3 (ELISA coat) (human, UniProt Q9NYJ7 27-492); test: ELISA, plate coated with recombinant human DLL3 0.5 µg/ml, anti-mouse IgG-HRP
T1 sequence: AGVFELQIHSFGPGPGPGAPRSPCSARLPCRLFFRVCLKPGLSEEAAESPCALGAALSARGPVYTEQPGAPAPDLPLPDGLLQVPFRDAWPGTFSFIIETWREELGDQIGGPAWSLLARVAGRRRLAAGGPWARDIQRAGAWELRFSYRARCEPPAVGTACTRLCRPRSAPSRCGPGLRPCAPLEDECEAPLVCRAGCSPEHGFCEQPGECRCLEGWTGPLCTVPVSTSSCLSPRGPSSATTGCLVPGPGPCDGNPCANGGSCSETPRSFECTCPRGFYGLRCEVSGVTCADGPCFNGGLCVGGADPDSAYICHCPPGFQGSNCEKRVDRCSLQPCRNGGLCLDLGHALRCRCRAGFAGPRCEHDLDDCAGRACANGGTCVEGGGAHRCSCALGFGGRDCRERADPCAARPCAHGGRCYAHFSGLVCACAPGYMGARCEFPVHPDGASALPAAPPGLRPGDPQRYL
Experimental: (§1) To investigate the binding of anti-DLL3 antibodies to human DLL3, wells of high binding flat-bottom plates were coated with recombinant human DLL3 diluted to 0.5 μg/ml. To assess cross-reactivity of the antibodies to DLL1/DLL4, which are closely related family members to DLL3, plates were coated with recombinant human DLL1 diluted to 1 μg/ml, or human DLL4 diluted to 0.5 μg/ml. […] Binding was detected using anti-mouse IgG-HRP and 3,3′,5,5′-Tetramethylbenzidine (TMB) substrate. Signals were normalized to the corresponding positive control antibody.
Table 38 lists the calculated EC₅₀ based on the binding data from FIG. 24.

[2] = target: T2, extracellular domain (ECD) of human DLL3 (AdipoGen Life Sciences) (human, UniProt Q9NYJ7 27-492); test: SPR (Biacore 8K), 37 C, antibody captured on anti-mouse Fc, DLL3 ECD injected, 1:1 fit
T2 construct: Bought and further purified by size exclusion chromatography; also called hDLL3 ECD; DLL3 ECD
T2 sequence: T1 sequence
From the text: The binding kinetics of different anti-DLL3 antibodies to recombinant proteins of different domains of human DLL3 were studied by surface plasmon resonance (SPR) using a Biacore™ 8K instrument. These anti-DLL3 antibodies were produced from mouse hybridomas, and each included a heavy chain variable region and light chain variable region described herein. Briefly, antibodies recognizing human IgG Fc and antibodies recognizing mouse IgG Fc were immobilized on different channels of a Biacore™ 8K chip to allow simultaneous analysis of human and murine anti-DLL3 antibodies. Murine anti-DLL3 antibodies were captured on the anti-mouse Fc channel of the Biacore chip. The human anti-DLL3 antibody from Stemcentrx (San Francisco, Calif.) was used as a control and was captured onto anti-human Fc channel of the Biacore™ chip. Different concentrations of DLL3 ECD, DLL3 N-terminal domain, EGF2-6, EGF3-6, EGF4-6, or EGF5-6 domains of DLL3 were injected. Experiments were performed at 37° C. Biacore™ 8K evaluation software was used for all data analysis. To obtain kinetic rate constants double-referenced data were fit to a 1:1 interaction model using Biacore™ 8K Evaluation software (GE Healthcare, Marlborough, Mass.). The equilibrium binding constant KD was determined by the ratio of binding rate constants kd/kₐ.
Table 36 lists the calculated binding kinetics (KD). […] Stemcentrx anti-DLL3 antibody was used as a control.

recombinant human DLL1 = target: T3, recombinant human DLL1 (human, UniProt O00548 18-540, limits assumed); test: ELISA, plate-bound recombinant human DLL1 (1 µg/mL), anti-mouse IgG-HRP/TMB, % of positive control max
T3 sequence (looked up): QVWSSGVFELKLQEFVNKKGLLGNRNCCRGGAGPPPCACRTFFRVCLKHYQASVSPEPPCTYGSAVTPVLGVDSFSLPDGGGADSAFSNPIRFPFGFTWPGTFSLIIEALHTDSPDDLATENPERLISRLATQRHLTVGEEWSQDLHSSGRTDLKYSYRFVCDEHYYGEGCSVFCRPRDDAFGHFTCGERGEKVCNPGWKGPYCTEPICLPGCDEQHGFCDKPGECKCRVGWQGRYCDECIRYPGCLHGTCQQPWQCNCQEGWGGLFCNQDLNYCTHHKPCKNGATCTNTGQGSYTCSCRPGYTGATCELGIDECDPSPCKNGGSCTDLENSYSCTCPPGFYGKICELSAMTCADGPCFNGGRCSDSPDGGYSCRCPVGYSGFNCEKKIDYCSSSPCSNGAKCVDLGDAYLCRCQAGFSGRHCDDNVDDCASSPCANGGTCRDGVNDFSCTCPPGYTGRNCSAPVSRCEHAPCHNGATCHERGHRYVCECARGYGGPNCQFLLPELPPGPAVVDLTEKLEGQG
Experimental: as §1

human DLL3-His = target: T4, human DLL3-His (human, UniProt Q9NYJ7 27-492); test: SPR (Biacore 8K), 37 C, antibody captured on anti-human Fc, DLL3-His 0.411-300 nM injected, 1:1 fit
T4 construct: also called hDLL3
T4 sequence: T1 sequence
From the text: The kinetics of binding of different humanized variants and parental murine 5E7 antibody to human DLL3-His was studied by Surface Plasmon Resonance using a Biacore 8K instrument. Briefly, anti-hFc and anti-mFc IgG proteins were covalently immobilized onto different channels of CMS chip to allow simultaneous analysis of human and murine antibodies. m5E7 was captured on the anti-mouse Fc channel and humanized variants were captured on the anti-human Fc channel at a desired capture level of […] in HBS-EP+ buffer supplemented with 0.1% BSA. Three buffer blanks and human DLL3-His (analyte) at concentrations 0.411-300 nM (in three fold dilutions) were injected over the surface with captured murine or humanized 5E7 for 300 second association time and let dissociate for 600 second at a flow rate of 30 μL/min. The surfaces were subjected to regeneration with three 20-second pulses of 10 mM glycine pH 1.70 at a flow rate of 100 μL/min between every concentration of analyte. The experiment was conducted at 37° C. Data were double referenced and a 1:1 fit model was applied to the sensorgrams in the Biacore Insight Evaluation software.
The kinetic parameters of human DLL3-His binding to murine and humanized variants of 5E7 antibody variants were calculated and shown in Table 39.

[3] = target: T5, recombinant human NKG2D-Fc fusion protein (human, UniProt P26718 73-216); test: ELISA, plate-bound recombinant human NKG2D-Fc, anti-human kappa-HRP/TMB
T5 construct: extracellular domain; also called NKG2D-Fc-biotin; not shown: human IgG1 Fc domain
T5 sequence (looked up): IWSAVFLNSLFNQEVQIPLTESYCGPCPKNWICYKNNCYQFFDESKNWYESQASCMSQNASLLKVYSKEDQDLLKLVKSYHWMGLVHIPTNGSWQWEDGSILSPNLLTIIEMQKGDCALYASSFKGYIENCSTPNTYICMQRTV
From the text: (§2) The nucleic acid sequences of human, mouse or cynomolgus NKG2D ectodomains were fused with nucleic acid sequences encoding human IgG1 Fc domains and introduced into mammalian cells to be expressed. After purification, NKG2D-Fc fusion proteins were adsorbed to wells of microplates. After blocking the wells with bovine serum albumin to prevent non-specific binding, NKG2D-binding domains were titrated and added to the wells pre-adsorbed with NKG2D-Fc fusion proteins. Primary antibody binding was detected using a secondary antibody which was conjugated to horseradish peroxidase and specifically recognizes a human kappa light chain to avoid Fc cross-reactivity. 3,3′,5,5′-Tetramethylbenzidine (TMB), a substrate for horseradish peroxidase, was added to the wells to visualize the binding signal, whose absorbance was measured at 450 nm and corrected at […]. An NKG2D-binding domain clone, an isotype control or a positive control (comprising heavy chain and light chain variable domains selected from SEQ ID NOs:101-104, or anti-mouse NKG2D clones MI-6 and CX-5, eBioscience, San Diego, Calif.) was added to each well.

[4] = target: T6, recombinant mouse NKG2D-Fc fusion protein (mouse; human, UniProt O54709 90-232); test: ELISA, plate-bound recombinant mouse NKG2D-Fc, anti-human kappa-HRP/TMB
T6 construct: extracellular domain; also called Mouse NKG2D-Fc-biotin; not shown: human IgG1 Fc domain
T6 sequence (looked up): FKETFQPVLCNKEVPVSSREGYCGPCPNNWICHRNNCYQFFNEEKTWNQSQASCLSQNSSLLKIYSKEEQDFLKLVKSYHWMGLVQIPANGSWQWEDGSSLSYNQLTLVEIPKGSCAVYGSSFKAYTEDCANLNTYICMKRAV
From the text: as §2

[5] = target: T7, recombinant cynomolgus NKG2D-Fc fusion protein (cynomolgus; human, UniProt P61252 73-216); test: ELISA, plate-bound recombinant cynomolgus NKG2D-Fc, anti-human kappa-HRP/TMB
T7 construct: extracellular domain; not shown: human IgG1 Fc domain
T7 sequence (looked up): T5 sequence (looked up) with D43N, T133I
From the text: as §2

B1: anti-DLL3 antibody clone 9E6 (antibody, V domains shown)
VH: QLQLVQSGPELMRPGETVKISCKASGYTFTTYGMNWVKQAPGKGLKWVGWINTYSGVPTYADDFKGRFAFSLESSASTAFLQINNLKDEDTATYFCARFGNYGFDCWGQGTTLTVSS
VL: DIVMTQSPSSLSVSAGEKVTMSCKSSQSLLNSGNQKNYLAWYQQKPGQPPKLLIYGASTRESGVPDRFTGSGSGTDFTLTISSVQAEDLAVYYCQNDHIYPYTFGGGTKLEIK
notes: Murine antibody from a mouse hybridoma
EC50 [1]: 0.45 nM
Kd [2]: 5.11 nM
koff [2]: 0.00208 s⁻¹
kon [2]: 408000 M⁻¹ s⁻¹
binding result (recombinant human DLL1): no binding

B2: anti-DLL3 antibody clone 10F5 (antibody, V domains shown)
VH: B1 VH
VL: B1 VL
notes: as for B1
EC50 [1]: 0.64 nM
binding result (recombinant human DLL1): no binding

B3: humanized anti-DLL3 antibody h5E7-YD-A6 (antibody, V domains shown)
VH: QVQLVQSGAEVKKPGASVKVSCKASGFNIKDDYIHWVRQAPGQGLEWMGWIDSENGDTEYASKFQGRVTITADTSANTAYMELSSLRSEDTAVYYCATSSYWSYDLFVYWGQGTLVTVSS
VL: DVQMTQSPSSLSASVGDRVTITCKSSQSLLHSNGKTYLNWLQQKPGQAPKLLLYLVSKLESGVPSRFSGSGSGTDYTLTISSLQPEDFATYYCLQTTHLYTFGQGTKLEIK
notes: Expressed as IgG1 mAb: human IgG1 CH1-CH2-CH3 and human constant kappa; also called A6 variant
Kd (human DLL3-His): 1.1 nM
koff (human DLL3-His): 0.000434 s⁻¹
kon (human DLL3-His): 396000 M⁻¹ s⁻¹

B7: ADI-27705 (antibody, V domains shown)
VH: QVQLQQWGAGLLKPSETLSLTCAVYGGSFSGYYWSWIRQPPGKGLEWIGEIDHSGSTNYNPSLKSRVTISVDTSKNQFSLKLSSVTAADTAVYYCARARGPWSFDPWGQGTLVTVSS
VL: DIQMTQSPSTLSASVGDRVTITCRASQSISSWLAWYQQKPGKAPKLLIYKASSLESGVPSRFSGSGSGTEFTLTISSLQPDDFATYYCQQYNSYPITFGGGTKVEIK
EC50 (read off the curve) [3]: ~0.6 nM
binding result [4]: binds
binding result [5]: binds

B8: ADI-27724 (antibody, V domains shown)
VH: B7 VH
VL: not shown
EC50 (read off the curve) [3]: ~10 nM
EC50 (read off the curve) [4]: ~8 nM
EC50 (read off the curve) [5]: ~10 nM

B9: ADI-27741 (antibody, V domains shown)
VH: B7 VH
VL: DIQMTQSPSTLSASVGDRVTITCRASQSIGSWLAWYQQKPGKAPKLLIYKASSLESGVPSRFSGSGSGTEFTLTISSLQPDDFATYYCQQSNSYYTFGGGTKVEIK
binding result [3]: binds
binding result [4]: binds
binding result [5]: binds

B10: ADI-28226 (antibody, V domains shown)
VH: B7 VH
VL: DIQMTQSPSTLSASVGDRVTITCRASQSISSWLAWYQQKPGKAPKLLIYKASSLESGVPSRFSGSGSGTEFTLTISSLQPDDFATYYCQQYGSFPITFGGGTKVEIK
notes: also called C26
binding result [3]: binds
binding result [4]: binds
EC50 (read off the curve) [5]: ~1 nM

Continued, values first:

Kd (human DLL3-His): 1.29 nM
koff (human DLL3-His): 0.000405 s⁻¹
kon (human DLL3-His): 312000 M⁻¹ s⁻¹
B4: humanized anti-DLL3 antibody h5E7-YD-F3 (antibody, V domains shown)
VH: B3 VH with F107L
VL: B3 VL
notes: Expressed as IgG1 mAb: human IgG1 CH1-CH2-CH3 and human constant kappa; also called F3 variant

Kd (human DLL3-His): 3.35 nM
koff (human DLL3-His): 0.00137 s⁻¹
kon (human DLL3-His): 409000 M⁻¹ s⁻¹
B5: humanized anti-DLL3 antibody h5E7-YD-C6 (antibody, V domains shown)
VH: B3 VH with S100E, W102Y
VL: B3 VL
notes: Expressed as IgG1 mAb: human IgG1 CH1-CH2-CH3 and human constant kappa; also called C6 variant

Kd (human DLL3-His): 0.27 nM
koff (human DLL3-His): 0.00013 s⁻¹
kon (human DLL3-His): 474000 M⁻¹ s⁻¹
B6: humanized anti-DLL3 antibody h5E7-YD-B5 (antibody, V domains shown)
VH: B3 VH with S100T
VL: B3 VL
notes: Expressed as IgG1 mAb: human IgG1 CH1-CH2-CH3 and human constant kappa; also called B5 variant
